US20080057028A1

What was measured:
[1] = molecular target: VEGFR-3 on mouse oligodendrocyte precursor cells (OPCs) (mouse) (UniProt P35917); test: cell-based or functional assay
[2] = molecular target: neuropilin-2 on mouse oligodendrocyte precursor cells (OPCs) (mouse) (UniProt O35375); test: cell-based or functional assay
UniProt O35375, sequence (O35375 21-931): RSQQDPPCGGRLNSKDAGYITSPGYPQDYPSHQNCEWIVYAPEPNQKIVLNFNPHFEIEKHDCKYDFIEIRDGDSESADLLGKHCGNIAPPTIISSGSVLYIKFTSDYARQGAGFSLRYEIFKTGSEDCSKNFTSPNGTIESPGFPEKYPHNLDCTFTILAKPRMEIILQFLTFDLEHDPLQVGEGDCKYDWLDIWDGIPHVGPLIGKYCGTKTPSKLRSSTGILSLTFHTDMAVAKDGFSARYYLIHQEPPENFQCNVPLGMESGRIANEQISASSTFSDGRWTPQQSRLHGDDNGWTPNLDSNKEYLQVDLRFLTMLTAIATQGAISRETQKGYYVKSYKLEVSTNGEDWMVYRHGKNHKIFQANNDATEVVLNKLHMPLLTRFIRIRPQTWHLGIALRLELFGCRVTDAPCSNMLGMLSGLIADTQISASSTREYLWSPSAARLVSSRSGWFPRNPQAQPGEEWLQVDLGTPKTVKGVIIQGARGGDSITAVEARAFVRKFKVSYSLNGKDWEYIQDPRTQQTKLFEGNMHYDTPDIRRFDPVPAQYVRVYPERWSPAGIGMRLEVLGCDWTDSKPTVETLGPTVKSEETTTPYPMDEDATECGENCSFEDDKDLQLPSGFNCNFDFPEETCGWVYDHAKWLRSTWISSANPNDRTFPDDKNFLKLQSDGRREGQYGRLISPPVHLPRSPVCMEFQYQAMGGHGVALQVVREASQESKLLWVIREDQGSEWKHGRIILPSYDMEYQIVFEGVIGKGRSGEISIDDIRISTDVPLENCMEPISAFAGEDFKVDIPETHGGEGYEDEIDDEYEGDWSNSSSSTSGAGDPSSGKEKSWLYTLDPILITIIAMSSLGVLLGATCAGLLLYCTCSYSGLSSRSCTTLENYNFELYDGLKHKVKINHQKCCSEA

UniProt P35917, sequence (P35917 25-1363): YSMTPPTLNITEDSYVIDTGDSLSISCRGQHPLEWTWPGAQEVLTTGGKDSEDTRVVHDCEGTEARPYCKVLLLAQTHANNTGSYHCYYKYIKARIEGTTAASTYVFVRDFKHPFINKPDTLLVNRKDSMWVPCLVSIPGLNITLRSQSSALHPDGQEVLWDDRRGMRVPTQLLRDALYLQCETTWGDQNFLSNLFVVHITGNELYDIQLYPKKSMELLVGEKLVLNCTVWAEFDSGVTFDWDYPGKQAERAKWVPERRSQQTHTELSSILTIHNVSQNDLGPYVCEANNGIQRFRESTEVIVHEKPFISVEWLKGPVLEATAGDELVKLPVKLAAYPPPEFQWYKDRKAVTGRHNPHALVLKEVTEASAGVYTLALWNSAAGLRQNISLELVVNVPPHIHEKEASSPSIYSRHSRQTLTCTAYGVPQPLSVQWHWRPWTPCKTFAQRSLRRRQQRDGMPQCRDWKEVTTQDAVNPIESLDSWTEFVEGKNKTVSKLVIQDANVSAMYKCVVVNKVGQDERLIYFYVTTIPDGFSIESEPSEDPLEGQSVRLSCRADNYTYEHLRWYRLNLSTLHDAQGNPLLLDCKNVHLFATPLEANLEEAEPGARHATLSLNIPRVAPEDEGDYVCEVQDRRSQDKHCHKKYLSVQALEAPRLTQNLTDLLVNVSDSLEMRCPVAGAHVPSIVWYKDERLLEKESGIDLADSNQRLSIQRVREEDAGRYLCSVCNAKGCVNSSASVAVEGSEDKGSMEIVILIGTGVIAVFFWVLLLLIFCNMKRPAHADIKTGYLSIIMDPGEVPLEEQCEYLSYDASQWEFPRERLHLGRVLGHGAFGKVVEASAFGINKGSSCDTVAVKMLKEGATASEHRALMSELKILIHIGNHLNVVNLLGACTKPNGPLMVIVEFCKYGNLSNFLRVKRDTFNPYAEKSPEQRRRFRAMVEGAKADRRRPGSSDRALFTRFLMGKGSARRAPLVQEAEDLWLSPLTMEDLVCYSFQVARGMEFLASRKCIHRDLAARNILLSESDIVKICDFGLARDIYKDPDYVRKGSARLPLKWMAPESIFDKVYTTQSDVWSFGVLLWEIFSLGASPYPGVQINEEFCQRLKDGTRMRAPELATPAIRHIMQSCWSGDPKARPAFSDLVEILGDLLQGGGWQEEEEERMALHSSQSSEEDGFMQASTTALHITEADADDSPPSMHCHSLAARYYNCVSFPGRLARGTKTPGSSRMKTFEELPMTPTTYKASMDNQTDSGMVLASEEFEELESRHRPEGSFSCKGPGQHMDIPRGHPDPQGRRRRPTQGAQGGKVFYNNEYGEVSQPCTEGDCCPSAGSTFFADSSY

migration of Olig2^+ OPCs through the filter (transwell) [1] | proliferation of OPCs (BrdU^+/A2B5^+ cells) [1] | BrdU incorporation of A2B5^+ OPCs [2] | Substance
> 2 fold | 2 fold |  | recombinant rat VEGF-C (Reliatech) (from UniProt O35757 99-223) (ligand)
 | 50% |  | human VEGF-C156S (R&D Systems) (from UniProt P49767 103-227) (ligand)
 |  | 2 fold | VEGF-C (supernatant of COS cells secreting VEGF-C) (ligand)
